From US20100272723A1 (Xencor, published 2010)
Numbering of substitutions follows the chain as printed. Names and notes keep the numbering of the source. Blank lines part the entries; values can stand above or below the binder they belong to.

Key:
human CD19 [1] = biological target: T1, human CD19 (human, UniProt P15391 20-556); assay: binding affinity relative to the parent H1L1 mAb (Example 5); assay and format not named on the sheet
T1 construct: also called B-cell surface antigen B4; B-cell antigen CD19
T1 sequence: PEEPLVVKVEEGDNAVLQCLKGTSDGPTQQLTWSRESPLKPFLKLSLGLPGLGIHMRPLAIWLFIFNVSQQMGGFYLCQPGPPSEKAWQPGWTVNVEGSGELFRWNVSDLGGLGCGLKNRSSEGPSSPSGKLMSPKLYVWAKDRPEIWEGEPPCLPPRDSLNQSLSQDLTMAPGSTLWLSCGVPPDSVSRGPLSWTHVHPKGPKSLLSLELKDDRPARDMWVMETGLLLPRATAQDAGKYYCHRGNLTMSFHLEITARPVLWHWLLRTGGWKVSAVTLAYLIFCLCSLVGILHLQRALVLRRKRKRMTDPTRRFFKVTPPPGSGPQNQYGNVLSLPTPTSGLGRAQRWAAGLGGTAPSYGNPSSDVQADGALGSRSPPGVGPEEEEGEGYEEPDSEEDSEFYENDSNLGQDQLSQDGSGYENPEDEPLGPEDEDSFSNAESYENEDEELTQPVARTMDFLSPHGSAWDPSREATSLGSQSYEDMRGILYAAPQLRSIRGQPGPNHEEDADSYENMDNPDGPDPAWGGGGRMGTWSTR

human CD19 [2] = biological target: T1, human CD19; assay: DELFIA competition on Raji cells: unlabeled antibody competes with Eu-labeled anti-CD19 for surface CD19 [upper panel]

Fold change binding (human CD19 [1]): 5.32 fold
B3: H1.191 / L1.163 (antibody, V domains shown)
VH: EVQLVESGGGLVKPGGSLKLSCAASGYTFTSYVMHWVRQAPGKGLEWIGYINPYNDGTEYNEKFQGRVTISSDKSISTAYMELSSLRSEDTAMYYCARGTYYYGTRVFDYWGQGTLVTVSS
VL: DIVMTQSPATLSLSPGERATLSCRSSKSLQNANSNTYLYWFQQKPGQSPQLLIYRMSNLNSGVPDRFSGSGSGTEFTLTISSLEPEDFAVYYCMQHLEYPITFGAGTKLEIK
notes: vs H1L1 (Kabat): VH K58E/S100cT; VL L27cQ/S27eA/G29S/A55N/F96I; also called 4G7 H1.191_L1.163

Fold change binding (human CD19 [1]): 1.5 fold
B5: H1 / L1.54 (antibody, V domains shown)
VH: B3 VH with E59K, T105S
VL: B3 VL with Q30L, A32S, S34G, N58G, N60A, I101F
notes: vs H1L1 (Kabat): VL N53G; also called 4G7 H1_L1.54

Fold change binding (human CD19 [1]): 5.57 fold
B6: H1.52 / L1.162 (antibody, V domains shown)
VH: B3 VH with E59K
VL: B3 VL with S34A
notes: vs H1L1 (Kabat): VH S100cT; VL L27cQ/S27eA/G29A/A55N/F96I; also called 4G7 H1.52_L1.162

Fold change binding (human CD19 [1]): 1.73 fold
B9: H1 / L1.26 (antibody, V domains shown)
VH: B3 VH with E59K, T105S
VL: B3 VL with A32S, S34G, N60A, I101F
notes: vs H1L1 (Kabat): VL L27cQ; also called 4G7 H1_L1.26

Fold change binding (human CD19 [1]): 1.62 fold
B11: H1 / L1.80 (antibody, V domains shown)
VH: B3 VH with E59K, T105S
VL: B3 VL with Q30L, A32S, S34G, Y39F, N60A, I101F
notes: vs H1L1 (Kabat): VL Y34F; also called 4G7 H1_L1.80

Fold change binding (human CD19 [1]): 3.87 fold
B14: H1.201 / L1.163 (antibody, V domains shown)
VH: B3 VH with D56S, E59K
VL: B3 VL
notes: vs H1L1 (Kabat): VH D55S/S100cT; VL L27cQ/S27eA/G29S/A55N/F96I; also called 4G7 H1.201_L1.163

Fold change binding (human CD19 [1]): 1.84 fold
B16: H1 / L1.9 (antibody, V domains shown)
VH: B3 VH with E59K, T105S
VL: B3 VL with Q30L, A32S, S34G, S57L, N60A, I101F
notes: vs H1L1 (Kabat): VL S52L; also called 4G7 H1_L1.9

Fold change binding (human CD19 [1]): 1.57 fold
B18: H1 / L1.17 (antibody, V domains shown)
VH: B3 VH with E59K, T105S
VL: B3 VL with Q30L, A32S, S34G, N60A, E98T, I101F
notes: vs H1L1 (Kabat): VL E93T; also called 4G7 H1_L1.17

Fold change binding (human CD19 [1]): 1.54 fold
B19: H1 / L1.92 (antibody, V domains shown)
VH: B3 VH with E59K, T105S
VL: B3 VL with Q30L, A32S, S34G, N60L, I101F
notes: vs H1L1 (Kabat): VL A55L; also called 4G7 H1_L1.92

Fold change binding (human CD19 [1]): 3.2 fold
B23: H1.203 / L1.163 (antibody, V domains shown)
VH: B3 VH with D56S
VL: B3 VL
notes: vs H1L1 (Kabat): VH D55S/K58E/S100cT; VL L27cQ/S27eA/G29S/A55N/F96I; also called 4G7 H1.203_L1.163

Fold change binding (human CD19 [1]): 3.27 fold
B24: H1.204 / L1.161 (antibody, V domains shown)
VH: B3 VH with D56E
VL: B3 VL with A32V
notes: vs H1L1 (Kabat): VH D55E/K58E/S100cT; VL L27cQ/S27eV/G29S/A55N/F96I; also called 4G7 H1.204_L1.161

Fold change binding (human CD19 [1]): 3.35 fold
B25: H1.191 / L1.162 (antibody, V domains shown)
VH: B3 VH
VL: B3 VL with S34A
notes: vs H1L1 (Kabat): VH K58E/S100cT; VL L27cQ/S27eA/G29A/A55N/F96I; also called 4G7 H1.191_L1.162

Fold change binding (human CD19 [1]): 1.8 fold
B30: H1 / L1.64 (antibody, V domains shown)
VH: B3 VH with E59K, T105S
VL: B3 VL with Q30L, A32S, S34G, N60A
notes: vs H1L1 (Kabat): VL F96I; also called 4G7 H1_L1.64

Fold change binding (human CD19 [1]): 2.61 fold
B32: H1 / L1.32 (antibody, V domains shown)
VH: B3 VH with E59K, T105S
VL: B3 VL with Q30L, A32V, S34G, N60A, I101F
notes: vs H1L1 (Kabat): VL S27eV; also called 4G7 H1_L1.32

The next lines start with the binder.

B1: H1 / L1.8 (antibody, V domains shown)
VH: B3 VH with E59K, T105S
VL: B3 VL with Q30L, A32S, S34G, S57K, N60A, I101F
notes: vs H1L1 (Kabat): VL S52K; also called 4G7 H1_L1.8
Fold change binding (human CD19 [1]): 2.18 fold

B2: H1 / L1.68 (antibody, V domains shown)
VH: B3 VH with E59K, T105S
VL: B3 VL with Q30L, A32S, S34G, N60A, I101N
notes: vs H1L1 (Kabat): VL F96N; also called 4G7 H1_L1.68
Fold change binding (human CD19 [1]): 2.12 fold

B4: H1.204 / L1.162 (antibody, V domains shown)
VH: B3 VH with D56E
VL: B3 VL with S34A
notes: vs H1L1 (Kabat): VH D55E/K58E/S100cT; VL L27cQ/S27eA/G29A/A55N/F96I; also called 4G7 H1.204_L1.162
Fold change binding (human CD19 [1]): 4.07 fold

B7: H1.204 / L1.163 (antibody, V domains shown)
VH: B3 VH with D56E
VL: B3 VL
notes: vs H1L1 (Kabat): VH D55E/K58E/S100cT; VL L27cQ/S27eA/G29S/A55N/F96I; also called 4G7 H1.204_L1.163
Fold change binding (human CD19 [1]): 4.73 fold

B8: H1.201 / L1.164 (antibody, V domains shown)
VH: B3 VH with D56S, E59K
VL: B3 VL with S34G
notes: vs H1L1 (Kabat): VH D55S/S100cT; VL L27cQ/S27eA/A55N/F96I; also called 4G7 H1.201_L1.164
Fold change binding (human CD19 [1]): 4.41 fold

B10: H1.201 / L1.162 (antibody, V domains shown)
VH: B3 VH with D56S, E59K
VL: B3 VL with S34A
notes: vs H1L1 (Kabat): VH D55S/S100cT; VL L27cQ/S27eA/G29A/A55N/F96I; also called 4G7 H1.201_L1.162
Fold change binding (human CD19 [1]): 3.97 fold

B12: H1 / L1.96 (antibody, V domains shown)
VH: B3 VH with E59K, T105S
VL: B3 VL with Q30L, A32S, S34G, I101F
notes: vs H1L1 (Kabat): VL A55N; also called 4G7 H1_L1.96
Fold change binding (human CD19 [1]): 1.58 fold

B13: H1.52 / L1.163 (antibody, V domains shown)
VH: B3 VH with E59K
VL: B3 VL
notes: vs H1L1 (Kabat): VH S100cT; VL L27cQ/S27eA/G29S/A55N/F96I; also called 4G7 H1.52_L1.163
Fold change binding (human CD19 [1]): 3.74 fold

B15: H2L1 (antibody, V domains shown)
VH: QVQLQESGSGLVKPGGSLRLSCAASGYTFTSYVMHWVRQAPGKGLEWMGYINPYNDGTKYNESLKSRVTISSDKSISTAYMELSSLRAEDTAVYYCARGTYYYGSRVFDYWGQGTLVTVSS
VL: B3 VL with Q30L, A32S, S34G, N60A, I101F
notes: also called 4G7 H2L1
binding result (human CD19 [2]): binds

B17: H1L2 (antibody, V domains shown)
VH: B3 VH with E59K, T105S
VL: DIVMTQSPSSLSASVGDRVTISCRSSKSLLNSNGNTYLYWFQQKPGQSPQLLIYRMSNLASGVPDRFSGSGSGTEFTLTISSLQPEDVAVYYCMQHLEYPFTFGAGTKLEIK
notes: also called 4G7 H1L2
binding result (human CD19 [2]): binds

B20: H1 / L1.67 (antibody, V domains shown)
VH: B3 VH with E59K, T105S
VL: B3 VL with Q30L, A32S, S34G, N60A, I101V
notes: vs H1L1 (Kabat): VL F96V; also called 4G7 H1_L1.67
Fold change binding (human CD19 [1]): 1.73 fold

B21: H1.203 / L1.162 (antibody, V domains shown)
VH: B3 VH with D56S
VL: B3 VL with S34A
notes: vs H1L1 (Kabat): VH D55S/K58E/S100cT; VL L27cQ/S27eA/G29A/A55N/F96I; also called 4G7 H1.203_L1.162
Fold change binding (human CD19 [1]): 3.25 fold

B22: H1.202 / L1.163 (antibody, V domains shown)
VH: B3 VH with D56E, E59K
VL: B3 VL
notes: vs H1L1 (Kabat): VH D55E/S100cT; VL L27cQ/S27eA/G29S/A55N/F96I; also called 4G7 H1.202_L1.163
Fold change binding (human CD19 [1]): 3.57 fold

B26: H1.203 / L1.164 (antibody, V domains shown)
VH: B3 VH with D56S
VL: B3 VL with S34G
notes: vs H1L1 (Kabat): VH D55S/K58E/S100cT; VL L27cQ/S27eA/A55N/F96I; also called 4G7 H1.203_L1.164
Fold change binding (human CD19 [1]): 5.58 fold

B27: H1.202 / L1.162 (antibody, V domains shown)
VH: B3 VH with D56E, E59K
VL: B3 VL with S34A
notes: vs H1L1 (Kabat): VH D55E/S100cT; VL L27cQ/S27eA/G29A/A55N/F96I; also called 4G7 H1.202_L1.162
Fold change binding (human CD19 [1]): 4.32 fold

B28: H1 / L1.46 (antibody, V domains shown)
VH: B3 VH with E59K, T105S
VL: B3 VL with Q30L, A32S, S34G, N58H, N60A, I101F
notes: vs H1L1 (Kabat): VL N53H; also called 4G7 H1_L1.46
Fold change binding (human CD19 [1]): 1.75 fold

B29: H1.52 / L1.161 (antibody, V domains shown)
VH: B3 VH with E59K
VL: B3 VL with A32V
notes: vs H1L1 (Kabat): VH S100cT; VL L27cQ/S27eV/G29S/A55N/F96I; also called 4G7 H1.52_L1.161
Fold change binding (human CD19 [1]): 3.18 fold

B31: H1 / L1.55 (antibody, V domains shown)
VH: B3 VH with E59K, T105S
VL: B3 VL with Q30L, A32S, S34G, N58Y, N60A, I101F
notes: vs H1L1 (Kabat): VL N53Y; also called 4G7 H1_L1.55
Fold change binding (human CD19 [1]): 1.58 fold
